Our source for the Kd, koff and kon values is patent US20160346402A1.

For the assay, the target named is TPP-2305, hTNFRSF12 amino acids a28-80 (recombinant human TWEAKR protein) (human) (UniProt Q9NP84). Put plainly: SPR (Biacore T100), antibody captured, TWEAKR TPP-2305 as analyte, 1:1 model. Background: In SPR one partner is held on a chip, and binding of the other changes the refractive index at the surface.

B1: ITEM-1 (antibody, from another filing, V domains shown)
VH: EVKLEESGGGLVQPGGSMKLSCVASGFSFSNYWMNWVRQSPEKGLEWVAEIRLKSNNYATHYAESVKGRFTISRHDSKSSVYLQMNNLRAEDTGIYYCTRAYADYFDYWGQGTTLTVSS
VL: DIVLTQSPASLVVSLGQRATISCRASQSVSTSTYSYMHWYQQKPGQPPKILIKYASNLESGVPARFSGSGSGTDFTLNIHPVEEEDTATYYCQHSWEIPYTFGGGTKLEIKR
Turning to B1, the Kd (commonly the constant that tells how readily two partners part at equilibrium) is 2.9 nM; the koff (in general, a measure of how fast the partners let go of each other) turned out to be 0.011 s⁻¹; the kon – broadly, the second-order rate constant of association – worked out at 3.8e+06 M⁻¹ s⁻¹.
